Data on 6 molecules can be found in patent US20240400677A1 (ELECTRA THERAPEUTICS, published 2024).

In general, EC50 (read off the curve) refers to the concentration that produces a half-maximal response.

Assay [1] concerns the target T1, human SIRPβ1 on CHO cells (co-transfected with DAP12) (human, UniProt O00241 30-398).
T1 construct: whole, on cells; co-transfected with DAP12; also called Human SIRPβ1 CHO
Briefly: flow cytometry.

The target of assay [2] is T2, cynomolgus monkey SIRPα on CHO cells (cynomolgus monkey, UniProt A0A2K5VYQ9 31-507).
T2 construct: whole, on cells; also called Cyno SIRPα CHO
T2 sequence: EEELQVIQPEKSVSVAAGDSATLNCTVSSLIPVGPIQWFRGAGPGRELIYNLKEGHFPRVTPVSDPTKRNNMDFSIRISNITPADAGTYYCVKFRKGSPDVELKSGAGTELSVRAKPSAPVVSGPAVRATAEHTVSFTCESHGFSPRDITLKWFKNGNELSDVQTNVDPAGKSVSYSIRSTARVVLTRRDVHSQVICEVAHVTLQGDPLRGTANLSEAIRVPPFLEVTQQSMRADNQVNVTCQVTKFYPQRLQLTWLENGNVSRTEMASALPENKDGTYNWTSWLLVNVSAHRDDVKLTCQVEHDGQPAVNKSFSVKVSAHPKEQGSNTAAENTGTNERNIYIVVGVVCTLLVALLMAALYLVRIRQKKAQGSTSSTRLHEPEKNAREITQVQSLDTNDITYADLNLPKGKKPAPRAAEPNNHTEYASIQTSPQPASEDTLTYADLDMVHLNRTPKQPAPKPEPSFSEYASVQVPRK
Briefly: flow cytometry. On the technique in general: In flow cytometry, cells or beads pass a laser one at a time.

Assay [3] deals with T3, human SIRPγ-His monomer protein (human, UniProt Q9P1W8 29-360).
T3 construct: also called hSIRPγ
The assay is described as follows: BLI Octet, V5-scFv PPE captured, SIRP-His 500 nM. For orientation: In BLI a coated tip is dipped into the sample, and binding shifts an interference pattern.

Assay [4] addresses T4, cynomolgus monkey SIRPγ-His monomer protein (cynomolgus monkey, UniProt Q9P1W8 29-359 (human entry), limits assumed).
T4 construct: also called Cyno SIRPγ; Cyno SIRPγ-His
T4 chain: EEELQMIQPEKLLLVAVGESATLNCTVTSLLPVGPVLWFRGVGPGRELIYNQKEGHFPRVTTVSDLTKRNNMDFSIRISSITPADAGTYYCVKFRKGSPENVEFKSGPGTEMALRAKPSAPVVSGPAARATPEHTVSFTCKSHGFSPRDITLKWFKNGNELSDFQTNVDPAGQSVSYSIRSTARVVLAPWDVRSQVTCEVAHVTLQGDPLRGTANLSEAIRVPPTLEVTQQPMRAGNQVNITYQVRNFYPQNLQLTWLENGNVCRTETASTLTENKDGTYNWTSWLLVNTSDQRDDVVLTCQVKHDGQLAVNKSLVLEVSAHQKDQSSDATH
The assay is described as follows: BLI Octet, captured scFv PPE, cyno SIRP. On the procedure:
Unique binders were further tested for binding to human SIRPαV1, human SIRPαV2, and human SIRPβ1. Briefly, biotinylated anti-V5 was immobilized onto streptavidin biosensors. Each V5-tagged SIRPγ scFv antibody as crude PPE was captured by the anti-V5 antibody. SIRP-His monomer protein at 500 nM was exposed to the biosensor for binding to SIRP scFv. The biosensors were then exposed to wash buffer to measure off-rate kinetics. The resulting association and dissociation kinetics (kdis) was analyzed. […] Similarly, cross-reactivity to cynomolgus monkey SIRPγ, cynomolgus monkey SIRPα, and cynomolgus monkey SIRPβ1 were tested.

Assay [5] deals with T5, cynomolgus monkey SIRPγ on CHO cells (cynomolgus monkey, UniProt Q9P1W8 29-386 (human entry)).
T5 construct: also called Cyno SIRPγ CHO
T5 chain: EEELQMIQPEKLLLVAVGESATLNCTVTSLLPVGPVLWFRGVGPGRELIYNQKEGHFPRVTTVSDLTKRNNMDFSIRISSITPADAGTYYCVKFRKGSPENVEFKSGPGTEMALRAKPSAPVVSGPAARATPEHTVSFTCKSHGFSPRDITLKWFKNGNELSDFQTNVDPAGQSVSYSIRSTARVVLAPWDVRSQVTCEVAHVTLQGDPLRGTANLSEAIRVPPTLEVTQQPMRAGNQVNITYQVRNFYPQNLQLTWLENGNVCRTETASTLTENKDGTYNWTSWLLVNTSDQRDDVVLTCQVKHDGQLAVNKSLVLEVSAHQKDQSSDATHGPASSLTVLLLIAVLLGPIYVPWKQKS
The assay is described as follows: flow cytometry, myc-scFv PPE. Put shortly: (§1)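 The CHO lines were stably transfected, with SIRPβ1 co-transfected with DAP12 where present. Titrated antibody was detected by labelled anti-human IgG and scored as MFI. The myc-scFv PPE was screened on these lines and on CHO-K1 parental cells, and fold change <2.0 was classed as non-binder.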

Assay [6] deals with T6, human SIRPγ on stably transfected CHO cells (human, UniProt Q9P1W8 29-387).
T6 construct: also called Human SIRPγ CHO
Briefly: flow cytometry, myc-scFv PPE. Put shortly: as §1

Assay [7] deals with T1, human SIRPβ1 on CHO cells …. Briefly: flow cytometry, CHO transfectants, anti-human IgG. The method, then:
(§2) Selected antibodies were tested for binding to stably transfected human SIRPγ, SIRPαV1, or SIRPβ1 (co-transfected with DAP12) Chinese hamster ovary (CHO) cells via flow cytometry. A titration of select antibodies was added to the cells and detected using a fluorescently labelled secondary anti-rat IgG antibody or anti-human IgG antibody. Graphs depict the median fluorescence intensity (MFI) at each concentration. FIGS. 5A and 5G show the binding curves of select antibodies to human SIRPγ, cynomolgus monkey SIRPγ, human SIRPα, cynomolgus monkey SIRPα, human SIRPβ1, or cynomolgus monkey SIRPβl-expressing CHO cells detected using an anti-rat IgG antibody. FIGS. 5B-5F and 5H-5L show the binding curves of select antibodies to human SIRPγ, cynomolgus monkey SIRPγ, human SIRPα, cynomolgus monkey SIRPα, human SIRPβ1, or cynomolgus monkey SIRPβ1-expressing CHO cells detected using an anti-human IgG antibody. […] For select antibodies, each myc-tagged SIRPγ scFv antibody as crude PPE was incubated with each of the SIRP-expressing cell lines stated above along with the parental CHO-K1 cell line. […] Fold change value <2.0 is considered a non-binder.

Assay [8] addresses T2, cynomolgus monkey SIRPα on CHO cells. Briefly: flow cytometry, CHO transfectants, anti-human IgG. The method, then: as §2
Assay [9] deals with T6, human SIRPγ on stably transfected CHO …. The assay is described as follows: flow cytometry, CHO transfectants, anti-human IgG. The method, then: as §2
For assay [10], the target named is T7, extracellular binding domain of human SIRPγ (plate-coated) (human, UniProt Q9P1W8 29-360).
T7 construct: also called hSIRPγ
Briefly: ELISA, coated SIRP ECD (2 µg/mL), anti-human IgG, luminescence. The method, then: (§3) Selected hybridoma supernatants of Example 1 were tested for binding to human SIRPγ, cynomolgus monkey SIRPγ, human SIRPα V1, cynomolgus monkey SIRPα, human SIRPβ1, and cynomolgus monkey SIRPβ1 by enzyme-linked immunosorbent assay (ELISA). Briefly, 2 μg/mL of the extracellular domain of SIRP protein was coated onto high protein-binding plates and blocked. Undiluted supernatants were added to coated plates. The antibodies were detected by an anti-rat antibody and a chemiluminescent substrate. […] The data depict the relative luminescence units read by a plate-reader capable of detecting chemiluminescence.
(§4) FIGS. 2A-2G show binding curves of SIRPγ antibodies and human Fc isotype controls to human SIRPγ, cynomolgus monkey SIRPγ, human SIRPα V1, human SIRPα V2, and human SIRPβ1 by ELISA. […] Isotype control 2 was an unrelated human IgG1 antibody with irrelevant CDRs with no modifications in the Fc region. DNA was transiently transfected into Expi293F cells for 5 days. Antibodies were purified by Protein A from cell supernatants and analyzed in a titration via ELISA as previously described in FIG. 1 using an anti-human IgG antibody as the detection antibody.
Background: An ELISA detects its analyte on a solid surface through an enzyme-linked reagent.

Assay [11] addresses T8, Cynomolgus Monkey SIRPγ (plate-coated extracellular domain).
T8 construct: also called Cyno SIRPγ
T8 extracellular domain: T4 chain
The description is as above. On the procedure: as §3, §4

Changes are numbered by the printed parent chain.

T1 sequence (O00241 30-398): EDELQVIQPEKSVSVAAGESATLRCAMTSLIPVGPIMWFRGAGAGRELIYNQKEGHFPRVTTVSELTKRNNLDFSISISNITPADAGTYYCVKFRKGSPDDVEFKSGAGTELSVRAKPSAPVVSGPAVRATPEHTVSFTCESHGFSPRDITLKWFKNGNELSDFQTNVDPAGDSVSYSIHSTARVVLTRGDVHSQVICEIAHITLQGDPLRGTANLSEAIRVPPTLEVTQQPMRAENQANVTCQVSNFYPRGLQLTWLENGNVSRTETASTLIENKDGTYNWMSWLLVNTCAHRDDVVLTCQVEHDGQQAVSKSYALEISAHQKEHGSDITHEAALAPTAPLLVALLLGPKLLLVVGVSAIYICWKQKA
T3 sequence (Q9P1W8 29-360 limits assumed): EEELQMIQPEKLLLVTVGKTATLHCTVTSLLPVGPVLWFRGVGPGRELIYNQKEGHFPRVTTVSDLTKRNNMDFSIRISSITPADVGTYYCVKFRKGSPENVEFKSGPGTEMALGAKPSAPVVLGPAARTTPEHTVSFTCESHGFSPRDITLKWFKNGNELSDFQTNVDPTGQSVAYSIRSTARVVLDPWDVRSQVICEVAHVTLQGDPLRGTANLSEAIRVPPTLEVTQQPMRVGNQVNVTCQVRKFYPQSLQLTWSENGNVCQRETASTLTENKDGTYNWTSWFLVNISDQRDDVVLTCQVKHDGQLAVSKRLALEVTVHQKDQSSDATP
T6 sequence (Q9P1W8 29-387 limits assumed): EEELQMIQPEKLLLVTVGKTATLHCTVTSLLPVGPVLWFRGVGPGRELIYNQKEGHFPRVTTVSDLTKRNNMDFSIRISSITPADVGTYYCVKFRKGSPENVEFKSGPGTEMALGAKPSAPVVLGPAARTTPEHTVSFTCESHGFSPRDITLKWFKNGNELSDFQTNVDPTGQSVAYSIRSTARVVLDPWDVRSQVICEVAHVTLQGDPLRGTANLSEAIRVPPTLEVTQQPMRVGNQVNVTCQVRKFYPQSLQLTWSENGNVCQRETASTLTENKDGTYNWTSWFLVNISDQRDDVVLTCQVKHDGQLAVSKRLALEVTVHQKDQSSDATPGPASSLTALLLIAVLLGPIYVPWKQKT
T7 sequence (Q9P1W8 29-360 limits assumed): as the sequence (Q9P1W8 29-360 limits assumed) above

B1: Antibody 25 (scFv, V domains shown)
VH: EVQLLESGGGLVQPGGSLRLSCAASGFTVGSWYMSWVRQAPGKGLEWVAHVSDDGSNEFYADSVKGRFTISRDNSKNTLYLQMNSLRAEDTAVYYCARSPGYCSSTSCYRYYGMDVWGQGTTVTVSS
VL: DIQMTQSPSSLSASVGDRVTITCRTSQSIGTYLNWYQQKPGKAPKLLIYDASNLPTGVPSRFSGSGSGTDFTLTISSLQPEDFATYYCQNYNSALFGPGTKVDIK
notes: scFv in crude PPE, V5/myc-tagged
In the case of B1, the figures for the binding result in [1], in assay [2] and in [4] were “no binding (tested: fold change <2.0)”, “no binding (tested: fold change <2.0)” and “binds”, respectively. Further, the kdis in [3] lay in the range of 0.001 to 0.01 s⁻¹. Besides, the “MFI fold change over parental CHO” value in assay [5] worked out at 10.3 fold; in [6], 19.5 fold.

B2: Antibody 65 (antibody, V domains shown)
VH: QVQLVQSGAEVKKPGASVKVSCKASGYTFTSHDINWVRQAPGQGLEWMGWMNANNGNAGYAQKFQGRVTMTRDTSTSTVYMELSSLRSEDTAVYYCAKDLSPSSSWSTYYYYYGMDVWGQGTMVTVSS
VL: DIQMTQSPSSLSASVGDRVTITCRASQSISNLLAWYQQKPGKAPKLLIYAASSLQSGVPSRFSGSGSGTDFTLTISSLQPEDFATYYCQQSYSTPYTFGQGTKLEIK
In the case of B2, the binding result in [7] and in assay [8] was “no binding (tested: about 20 µg/mL)” in each case. Also, the “EC50 (read off the curve)” value in assay [9] is around 0.5 µg/mL.

B3: Antibody 30 (scFv, V domains shown)
VH: QVQLVQSGAEVKKPGASVKVSCKASGYTFTNFDINWVRQAPGQGLEWMGWISAYNGHTNYAQNLQGRVTMTRDTSTSTVYMELSSLRSEDTAVYYCAQEAAAGYFDYWGQGTLVTVSS
VL: B2 VL with S28D, S30R, L32D, A50D, S53N, Q55E, S56T, S93G
notes: as for B1
For the molecule B3, the figures for the binding result in assay [1], in assay [2] and in [4] were “no binding (tested: fold change <2.0)”, “no binding (tested: fold change <2.0)” and “binds”, respectively. In addition, the kdis in assay [3] fell in the range of 0.001 to 0.01 s⁻¹. Further, the “MFI fold change over parental CHO” value in [5] turned out to be 3.76 fold; in assay [6], 5.94 fold.

B4: Antibody 71 (antibody, V domains shown)
VH: QVQLVQSGAEVKKPGASVKVSCKASGYTFTSYYIHWVRQAPGQGLEWMGTINPSGGSTSYAQKFQGRVTMTRDTSTSTVYMELSSLRSEDTAVYYCARETSRWLRDYYYGMDVWGQGTTVTVSS
VL: DIVMTQSPLSLPVTPGEPASISCRSSQSLLHSNGYNYLDWYLQKPGQSPQLLIYDASSLESGVPDRFSGSGSGTDFTLKISRVEAEDVGVYYCMQGTHWPLTFGGGTKVEIK
Consider B4, for which the binding result in assay [8] is on record as “no binding (tested: about 20 µg/mL)”. Further, the entries for the “EC50 (read off the curve)” value in [9], in assay [10] and in assay [11] were around 0.1 µg/mL, around 0.02 µg/mL and around 0.02 µg/mL, respectively.

B5: Antibody 31 (scFv, V domains shown)
VH: QVQLVQSGAEVKKPGASVKVSCKASGGTFRSYAISWVRQAPGQGLEWMGWMNPNSGNTGYAQKFQGRVTMTRDTSTSTVYMELSSLRSEDTAVYYCARESVLKGGMDVWGQGTTVTVSS
VL: DIVMTQSPDSLAVSLGERATINCRSSQSLFHSSTNANNLAWYQQKPGQPPKLLIYWASTRESGVPDRFSGSGSGTDFTLTISSLQAEDVAVYYCQQYYITPLTFGQGTRLEIK
notes: as for B1
Turning to B5, the values for the binding result in [1], in assay [2] and in assay [4] were “no binding (tested: fold change <2.0)”, “no binding (tested: fold change <2.0)” and “binds”, respectively. The molecule also yielded a kdis in assay [3] of 0.001 to 0.01 s⁻¹. Also, the “MFI fold change over parental CHO” value in assay [5] was 21.3 fold; in assay [6], 18.1 fold.

B6: Antibody 73 (antibody, V domains shown)
VH: QVQLVQSGAEVKKPGASVKVSCKASGGTFSSYDINWVRQAPGQGLEWMGWMNPNSGNTGYAQKFQGRVTMTRDTSTSTVYMELSSLRSEDTAVYYCARDLTLYCSSTSCLDAFDYWGQGTLVTVSS
VL: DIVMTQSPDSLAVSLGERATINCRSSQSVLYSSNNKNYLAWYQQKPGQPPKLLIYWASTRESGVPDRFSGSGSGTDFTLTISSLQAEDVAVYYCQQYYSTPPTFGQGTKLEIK
Regarding B6, the binding result in [7] and in [8] was “no binding (tested: about 20 µg/mL)” in each case. In addition, the “EC50 (read off the curve)” value in [9] was around 0.5 µg/mL; in [10], around 0.03 µg/mL; in assay [11] it was around 0.05 µg/mL.
